According to the nanobody polyreactivity screen of Harvey et al. (2022):

Assay: yeast display, Sf9 membrane polyspecificity reagent, FACS + sequencing; frameworks hold sequencing errors
In short: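 Nanobodies from a synthetic yeast display library (Saccharomyces cerevisiae BJ5465), induced 36–48 hours with galactose, were stained 1 hour at 4 °C with 10% biotinylated, detergent-solubilized Sf9 membrane reagent, enriched on streptavidin microbeads, then FACS-sorted. Anti-HA (expression) and streptavidin (reagent binding) fluorescence set low and high (top ~1%) gates. Polyreactivity labels come from the gate of origin. Genes were colony-PCR amplified, MiSeq 2 × 250 sequenced and filtered by CDR length.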

Sequence | polyreactivity (PSR sort gate)
QVQLVESGGGLVQAGGSLRLTCAASGFTFPDKAMGWYRQAPGNERELVAALTTSGGRTYYADSVKGRFTISRDNAKNTVYLQMNRLKPEDTAVYYCARPSRQSHWYYYWGQGTQVTVSS | high polyreactivity
QVQLVESGGGLVQAGGSLRLTCAASGIIFRLNAMGWYRQAPGKERELVAAIRRRGGSTYYADSVKGRFTISRDYAKNTVYLQMNSLKPADTAVYYCAKEPDGSDFGYWGQGTQVTESS | low polyreactivity
QVQLVESGGGLVQAGGSLRLTCAASGNTFGNYAMGWYRQAPGKERELVASISWNVGSTYYADSVKGRFTISRDNAKNTVYLQMNSLKPEDTAVYYCARGYDRPRVATFHRFDYWGQGTQVTVSS | low polyreactivity
QVQLVESGGGLVQAGGSLRLTCAASGRIFAPKAMGWYRQAPGKERELVAGISSGGSTNYADSVKGRFTISRDNAKNTVYLQMNSLTPEDSAVYYCATGSYSYHRGYVTYARYGYWGQGTLVTVSS | low polyreactivity
QVQLVESGGGLVQAGGSLRLTCAASGRIFDTYAMVWYRQAPGKEMELVAAISRSGGRTYYADSVKGRFTISRDNANNTVYLQMNSLKPEDTAVYYCAARAYPYYWTGQKQSRFGYWGQGTQVTVSS | high polyreactivity
QVQLVESGGGLVQAGGSLRLTCAASGRIFPYYAMGWYRQAPGKEREFVAAITSSGSRTYYADSVKGRFTISRDNAKNNVYLQMNSLKPEDTAVYYCAVAYRLLYYYWGQGTQVTVSS | high polyreactivity
QVQLVESGGGLVQAGGSLRLTCAASGRIFQRYAMGWYRQAPGKERELVAGITSSGGSTYYADSVKGRFTISRDNAKNTVYLQMNSLKPEDTAVYYCNAGGELRYYGYRAGGTTRSYDYWGQGTQVTVSS | low polyreactivity
QVQLVESGGGLVQAGGSLRLTCAASGRIFRRNAMGGYRQAPGKEREMVATITSGSSTNYADSVKGRFTISRDNAKNTVYLQMHSLKPEDTAVYYCAKLPWKYRVGYYRNQQTYDYWGQGTQVTVSS | high polyreactivity
QVQLVESGGGLVQAGGSLRLTCAASGRIFYPYPMGWYRQAPGKERELVAAIDKGGGSTYYADSVKGRFSISRDNAKNTVYLQMNSLKPEDTAVFYCAAGWEYPYDYWGQGTQVTVSS | low polyreactivity
QVQLVESGGGLVQAGGSLRLTCAASGRILRINTMGWYRQAPGKEMELVAAISLSGGTTYYAHSVKGRFTISRDNAKNTVYLQMNSVKPEDTAVYYCYKAIWYAEYDYWGQGTQVTVSS | low polyreactivity
QVQLVESGGGLVQAGGSLRLTCAASGRISKIYAMGWYRQAPGKERELVAAINSGGSTNYADSVKGRFTISRDNAKNTVYLQMNSLKPEDTAVYYCAATFKSGMDFWGQGTQVTVSS | high polyreactivity
QVQLVESGGGLVQAGGSLRLTCAASGRTFGHYAMGWYRQAPGKERELVAAISQRGGGTYYADSVKGRFTISRDNAKNTVYLQMNSLKPEDTAVYYCAADFGNSPYIKDYYYWGQGTQVTVSS | low polyreactivity
QVQLVESGGGLVQAGGSLRLTCAASGRTFGKYAMGWYRQAPGKERELVAAISSSGSTNYADSVKGRFTISRDNAKNTDYLQMNSLKPEDTAVYYCAAVQPGQSTVAYDYWGQGTQVTVSS | high polyreactivity
QVQLVESGGGLVQAGGSLRLTCAASGRTFGVNAMGWYRPAPGKERQLVAAITGGGSTYYADSVKGRFTISRDNAKNTVYLQMNSLKPDDTAVYYCNADRRRRSGGFAGWHFERNDYWGQGTQVTVSS | low polyreactivity
QVQLVESGGGLVQAGGSLRLTCAASGRTFIVYAMGWYRQAPGKERELVARISSGSRTSYADSVTGRFTISRDNAKNTVYLQMNSLKPEDTAVYYFAKSRVIKYEFDYWGQGTQVTLSS | low polyreactivity
QVQLVESGGGLVQAGGSLRLTCAASGRTFSVNAMGWYRQAPGKERELVASINWSGGSTYYADSVKGRFTISRDNAKNTVYLQMNSLKPEDTAVYYCAADHSYWDWWSYYYWGQGTQVTVSS | low polyreactivity
QVQLVESGGGLVQAGGSLRLTCAASGRTFWRYAMGWYRQAPGKERELVAAITSGGGSTYYADSVKGRFTISRDNAKNTVYLQMTSLKPEDTAVYYCNRAGRGRSFKGDYWGQGTQVTVSS | high polyreactivity
QVQLVESGGGLVQAGGSLRLTCAASGRTFYPYAMGWYRPAPGKERELVAAISSGVRTYYADSVKGRFTISRDNAKNTVYLQMNSLKPDDTAVYYCAARRSIWGQGTQVTVSS | high polyreactivity
QVQLVESGGGLVQAGGSLRLTCAASGRTYFYNAMGWYIKAPGKERELVAAISTNGGSTYYADSVNGRFTISRDNAKNTVYLQMNSLKPEDTAVYYCNTYAKPHRSGGGLGGHYYWGQGTQVTVSS | low polyreactivity
QVQLVESGGGLVQAGGSLRLTCAASGSIFALYAMGWYRQAPGKERELVAANADSVKGRFTISRDNAKNTVYLQMNSLKPEETAVYYCAKDITGGSGLGSWIYSEYDYWGQGTQVTVSS | low polyreactivity
QVQLVESGGGLVQAGGSLRLTCAASGSIFDYYAMGWYRQAPGKEWELVAAISNGGTTNYADSVKGRFTLSRDNAKNTVYLQMNRLKPEDTAVYYCNADSALYDKAVIYSEYDYWGQGTQVTVSS | low polyreactivity
QVQLVESGGGLVQAGGSLRLTCAASGSIFFPNTMGWSRQAPGKERELVASISYSGGSTYYADSVKGRFTISRDIAKNSVYLQMNSLKPEDTAVYYCARTYWGDRYQFSSNGYEYWGQGTQVTVSS | high polyreactivity

Sequence | polyreactivity (PSR sort gate)
QVQLVESGGGLVQAGGSLRLTCAASGSIFFQNAMGWYRQAPGKERELVATITSSVGSTYYADSVKGRFTISRDNAKNTVYFQMNSLKPEDTAVYYCNVRVFSAALWYTYFGYDYWGQGTQVTVSS | low polyreactivity
QVQLVESGGGLVQAGGSLRLTCAASGSIFLDYAMGWYRQAPAKERELVAGITISGGSTYYADSVKGRFTISRDNAKNTVYLQMNSLKPEDTAVYYCAKVAPRSSSSQEYYYWGQGTQVTVSS | low polyreactivity
QVQLVESGGGLVQAGGSLRLTCAASGSIFQRNAIGWYRQAPGKERELVAAITASGGRTYYADSVKGRFTISRDNAKNTVYLQMNSLKPEDTAVYYCAARGRTYCGGRTYDYWGHGTQVTVSS | high polyreactivity
QVQLVESGGGLVQAGGSLRLTCAASGSIFRYYAMGWYRQAPGKERELVATISSGGRTYYADSVKGRFTISRDNAKNTVYLQMNSLKPEDTAVYYCAAVRLTWTAKYNYWGQGTQVTVSS | high polyreactivity
QVQLVESGGGLVQAGGSLRLTCAASGSIFTGYTMGWYRQAPGKERELVASISRRGGRTYYADSVKGRFTISRDNAKNTVYLQMNSLKPEDTAVYYCAVDRVPWRYQDSYNYWGQGTQVTVSS | high polyreactivity
QVQLVESGGGLVQAGGSLRLTCAASGSIFYPYSMGRYRPAPGKERELVAAISSSGGSTYYADSVKGRFTISRDNAKNTVYLQMNSLKPEDTADYNCAARGKKHAYDYWGQGTQVTVSS | low polyreactivity
QVQLVESGGGLVQAGGSLRLTCAASGSIFYVNAMGWYRQAPGKERELVAAISVRGGRTYYADSVKGRFTISRDNAKNTVYLQMNSLKPEDTAVYYCATRISTVGRYDYWGQGTQVTVSS | high polyreactivity
QVQLVESGGGLVQAGGSLRLTCAASGSTFEVYAMGWYRQAPGKEREFVAAITVDGGSTYYADSVKGRFTISRDNAKNTVYLQMNSLKPEDTAVYYCAADSGSWEYYYWGQGTQVTVSS | low polyreactivity
QVQLVESGGGLVQAGGSLRLTCAASGSTFGYYAMGWNRQATGKERELVASITSDGSTNYADSVKGRFTISRDNAKNTVYLQMNSLKPEDTAVYYCAAYVWRYWHEYDYWGQGTQVTVSS | low polyreactivity
QVQLVESGGGLVQAGGSLRLTCAASGSTFKSYAMGWYRQDPGKERELVAAITVSGGSTYYADSVKGRFTISRDNAKNTVYLMMNSLTPEDTSVYYCAADSVLLKDTGYDYWGQGTQVTVSS | low polyreactivity
QVQLVESGGGLVQAGGSLRLTCAASGSTFPVYAMGWSRQAPGKERELVASISSGADTIYADSVKGRFTISRDNAKNTVYLQMNSLKPEDTSVYYCAVYRPGLTYYDYDYWGQGTQVTVSS | low polyreactivity
QVQLVESGGGLVQAGGSLRLTCAASGSTFRENAMGWNRQAPGKERELVAAITSGGSTYYADSVKGRFTISRDNAKNTVYLQMNSLKPEDTAVYYGNADLEPYDYWGQGTQVTVSS | low polyreactivity
QVQLVESGGGLVQAGGSLRLTCAASGSTFSYYAMGCYRQAPGKERELVAAISTRGSSTYYADSVKGRFTISRDNAKITVYVQMNSLKPEDTAVYYFAVDQYKYDCFYDYYGYTYGYWGQGTQVTVSS | high polyreactivity
QVQLVESGGGLVQAGGSLRLTCAASGSTFVNYTMGWYRQAPGKERELVAAIRYRDGSTYYADSVKGRFTISRDNAKNTVYLQMNSLKPEDTAVYYCNTRITQVGDYIYDYWGQGTQVTVSS | low polyreactivity
QVQLVESGGGLVQAGGSLRLTCAASGSTFVRYAMGWSRQAPGKERELVAAISRGGRTNYADSVKGRFTISRDNAKNTVYLQMNSLKPEDTAVYDCAKDRNIYYTYDYWGQGTQVTVSS | low polyreactivity
QVQLVESGGGLVQAGGSLRLTCAASGSTFVWYAMGWSRQAPGKEREFVATISWSDGSTYYADSVKGRFTISRDNAKNTVYLQMNSLKPEDTAVYYCASDVDRFFTYKYDYWGQGTQVTVSS | low polyreactivity
QVQLVESGGGLVQAGGSLRLTCAASGSTFYRYAMGWYRQAPGKERELVAAISTSGGRTYYADSVKGRFTISRDNAKNTVYLQMNSLKPEDTAVYYCAADQYRYYRSTYDYWGQGTQVTVSS | high polyreactivity
QVQLVESGGGLVQAGGSLRLTCAASGSTFYVYAMGWYRQAPGKERELVAAIDDSGDRTYYADSVKGRFTISRDNAKNTVYLQMNSLKPEDTAVYYCAAEYDSWEYDYWGQGTQVTVSS | low polyreactivity
QVQLVESGGGLVQAGGSLRLTCAASGSTYTGYAMGWYRQAPGKERELVAAISISGGRTFYADSVKGRFTISRDNAKNTVYLQMNSLKPEDTAVYYCAAYLRGSKYSFDYWGQGTQVTVSS | high polyreactivity
QVQLVESGGGLVQAGGSLRLTCAASGYIFGVYAMGWYRQAPGKERELVATISSGGSTNYADSVKGRFTISRDNAKNTVYLQMNSLKPEDTAVYYCAAERYWTYYSGFVYGGDNYWGQGTQVTVSS | low polyreactivity
QVQLVESGGGLVQAGGSLRLTCAASGYIFNQYTMGWYRQAPGKERELDADISSGGSTKYADSVKVRFTISRDNAKNTVYLQMISRKAEDTAFYYCNAEYVYGYPTAYDWEYDYWGQGTQVTLSS | high polyreactivity
